Results taken from patent US20160083712.

How the values were obtained:
[1] = test system: CSN6, soluble MPN domain construct of Example 2
[2] = molecular target: Nedd8-AMC (UniProt Q15843)
[3] = test system: LRGG-AMC

Sequence of Nedd8-AMC (Q15843 whole entry, looked up): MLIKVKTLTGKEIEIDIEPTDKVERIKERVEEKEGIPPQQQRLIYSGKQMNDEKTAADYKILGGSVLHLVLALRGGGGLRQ
Sequence of CSN6, soluble MPN domain construct of Example 2 (chain, as listed by the source): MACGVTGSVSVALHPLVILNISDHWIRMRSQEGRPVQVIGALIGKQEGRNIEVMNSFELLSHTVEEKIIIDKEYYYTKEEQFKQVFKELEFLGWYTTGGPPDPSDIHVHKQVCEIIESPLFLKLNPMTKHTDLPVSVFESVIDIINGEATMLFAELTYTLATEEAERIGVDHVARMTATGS
Sequence of CSN5 R106T, activatory mutant form, construct of Example 2 (chain, as listed by the source R106T): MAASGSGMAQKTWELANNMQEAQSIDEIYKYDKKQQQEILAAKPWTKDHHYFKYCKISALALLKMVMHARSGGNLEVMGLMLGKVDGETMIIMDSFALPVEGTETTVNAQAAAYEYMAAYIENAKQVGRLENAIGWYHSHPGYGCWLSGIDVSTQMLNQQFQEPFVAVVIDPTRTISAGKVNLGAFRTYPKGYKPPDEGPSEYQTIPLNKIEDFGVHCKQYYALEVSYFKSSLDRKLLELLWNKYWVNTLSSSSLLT
Sequence of CSN51-257 R106T (human CSN5 residues 1-257 with Arg106 substituted by threonine) (chain, as listed by the source R106T): as above
Sequence of GST-CSN51-257 R106T (GST-tagged human CSN5 residues 1-257 with Arg106 substituted by threonine) (chain, as listed by the source R106T): as above
Sequence of CSN5 WT, soluble MPN domain construct of Example 2 (chain, as listed by the source): as the sequence (chain, as listed by the source R106T) above, with T106R counted along it
Sequence of CSN51-257 wild type (human CSN5 residues 1-257, GST tag cleaved off) (chain, as listed by the source): as the sequence (chain, as listed by the source R106T) above, with T106R counted along it
Sequence of GST-CSN51-257 wild type (GST-tagged human CSN5 residues 1-257) (chain, as listed by the source): as the sequence (chain, as listed by the source R106T) above, with T106R counted along it

Substance	CSN5 isopeptidase activity (substrates LRGG-AMC, Nedd8-AMC, Nedd8-cullin 1) [1]	isopeptidase activity (hydrolysis of Nedd8-AMC, fluorescence) [2]	isopeptidase activity (hydrolysis of LRGG-AMC, fluorescence) [3]
CSN5 R106T, activatory mutant form, construct of Example 2	this effect is consistently more marked in the context of the activatory mutant form of CSN5, CSN5 R106T than the WT form		
CSN5 WT, soluble MPN domain construct of Example 2	CSN6 is able to significantly enhance CSN5 isopeptidase activity		
CSN51-257 R106T (human CSN5 residues 1-257 with Arg106 substituted by threonine)		the R106T substitution is sufficient to restore constitutive isopeptidase activity against two isopeptidase substrates, LRGG-AMC and Nedd8-AMC	
CSN51-257 wild type (human CSN5 residues 1-257, GST tag cleaved off)		the CSN51-257 WT form is void of isopeptidase activity	
GST-CSN51-257 R106T (GST-tagged human CSN5 residues 1-257 with Arg106 substituted by threonine)			the R106T substitution is sufficient to restore constitutive isopeptidase activity against two isopeptidase substrates, LRGG-AMC and Nedd8-AMC
GST-CSN51-257 wild type (GST-tagged human CSN5 residues 1-257)			the CSN51-257 WT form is void of isopeptidase activity
